# Fewer inactive variants are shown than the library holds.
# B1: TPR 5TU (parent)
# chain: GGAUCUUCUCGAUCUAACAAAAAAGACAAAUCUGCCACAAAGCUUGAGAGCAUCUUCGGAUGCAGAGGCGGCAGCCUUCGGUGGCGCGAUAGCGCCAACGUUCUCAACUAUGACACGCAAAACGCGUGCUCCGUUGAAUGGAGUUUAUCAUG
# Variants of: B1
# Experiment: polymerase ribozyme fitness, log enrichment relative to wild type (log ratio); higher = more active; in vitro selection for triplet polymerase activity
# Outline: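 Mutant libraries were PCR-built and transcribed for each subunit of a heterodimeric triplet polymerase ribozyme and selected for one round in triplicate at −7 °C, frozen, before gel excision of extended constructs and streptavidin-bead capture. Input and output libraries were Illumina-sequenced, keeping genotypes with ≥10 input reads and ≥1 read per output. Fitness is a logarithmic ratio of genotype to wild-type enrichment, in base 2, using inverse-variance-weighted replicate averages.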
row,Variant,polymerase ribozyme fitness (log ratio)
1,GGAUCUUAUCGAUCUAACAACAAAGACAAAUCUGCCACAAAGCUUGAGAGCAUCUUCGGAUGCAGAGGCGGCAGCCUUCGGUGGCGCGAUAGCGCCAACGUUCUCAACUAUGACACGCAAAACGCGUGCUCCGUUGAAUGGAGUUUAUCAUG [C8A A21C],-3.76
2,GGAUCUUCUCGAUCUCACAAAAAAGACAAAUCUGCCACAAAGCUUGAGAGCAUCUUCGGAUGCAGAGGCGGCAGCCUUCGGUGGCGCGAUAGCGCCAACGUUCUCAACUAUGACACGCAAAACGCAUGCUCCGUUGAAUGGAGUUUAUCAUG [A16C G126A],-0.0283
3,GGAUCUUCUCGAUCUAACAAUAAAGACAAAUCUGCCACAAAGCUUGAGAGCAUCUUCGGAUGCAGAGGCGGCAGCCUUCGGUGGCGCGAUAGCGCAAACGUUCUCAACUGUGACAUGCAAAACGCGUGCUCCGUUGAAUGGAGUGUAUCAUG [A21U C96A A110G C116U U145G],≤ -4.2
4,GGAUCUUCUCGAUCUAACAAAAAAGACAAAUCUGCCACAAAGCUUGAGGGCAUCUUCGGAUGCAGAGGCGGCAGCCUUCGGUGGCGCGAUAGCGCCAACGUUCUCAACUAUGACACGCAAAUCUCGUGCUCCGUUGAAUGGAGUUUAUCAUG [A49G A122U G124U],-0.811
5,GGAUCUUCUCGAUCUAACAAAAAAGACAAAUCUGCCACAAAGCUUGAGAGCAUCUAGGGAUGCAGAGGCGGCAGCCUUCGGUGGCGCGAUAGCGCCAACGUUCUCAACUAUGCCACGCAAAACGCGUGCUCCGUUGAAUGGAGUUUAUCAUG [U56A C57G A113C],-1.82
6,GGAUCUUCUCGAUCUAACAAAAAAGACAAAUCUGCCACAAGGCUUGAGAGCAUCUUCGGAUGCAGAGGCGGCAGCCUUCGGUGGCGCGAUAGCGCCAACGUUCUCAACUAUGACACGCAAAACGCGUGCUCCGUUGAAUGGAUUUUAUCAUG [A41G G143U],-1.73
7,GGAUCUUCUCGAUCUAACAAAAAAGACAAAUCUGCCACAAAGCUUGAGAGCAUAUUCGGAUGCAGAGGCGGCAGCCUUCGGUGGCGCGAUAGCGCCUACGUUCUCAACUAUGACACGCAAAACGCGUGCUCCGUUGAAUGGAGUUUAUCAUG [C54A A97U],-1.79
8,GGAUCUUCUCGAUCUAACAAAAAAGACAAAUCUGCCACAAAGCUUGAGAGCAUCAUCGGAUGCAGAGGCGGCAGCCUUCGGUGGCGCGAUAGCGCCAACGUUCUCAACUAUGACACGCAAAACGCGUGCUCCGUUGAAGGGAGUUUAUCAUG [U55A U139G],-0.865
9,GGAUCUUCUCGAUCUAACAAAAAAGACAAAUCUGCCACAAAGCUUGAGAGCAUCUUCGGAUGCAGAGGCGGCAGCCUUCGGUGGCGCGAUAGCGCCAACGUUCUCAACUAUGACACGCAAAACGCAUGCUCGGUUGAAUGGAGUUUAUCAUG [G126A C132G],-2.68
10,GGAUGUUCUCGAACUAACAAAAUAGACAAAUCUGCCACAAAGCUUGAGAGCCUCUUCGGAUGCAGAGGCGGCAGCCUUCGGUGGCGAGAUAGCGCCAACGUUCUUAGCUAUGACACGCAAAACGCGUGCUCCGUUGAAUGGAGUUUAUCAUG [C5G U13A A23U A52C C87A C105U A107G],≤ -4.2
11,GGAUCUUCUCGAUCUAACAAAAACGACAAAUUUGCCACAAAGCUUGAGCGCAUCUUCGGAUGCAGAGGCGGCAGCCUUCGGUGGGACGAUGGCGCCAACGUUCUCAACUAUGACACGCAAAAGGCGUGCUCAGUUGAAUGGAGUUUAUCAUG [A24C C32U A49C C85G G86A A91G C123G C132A],≤ -4.2
12,GGAUCUUCUCGAUCUAACAAAAAAGACAAAUCUGCCACAGAUCUUGAGAGCAUCUUCGGAUGCAGAGGCGGCACCCUUCGGUGGCGCGAUAGCGCCAACGUUCUCAACUAUGACACGCAAAACGCGUGCUCCGUUGAAUGGAGUUUAUCAUG [A40G G42U G74C],≤ -4.2
13,GGAUCUUCUCGAUCUAACAAACAAGACAAAUCUGCCACAAAGCUUGAGAUCAUCUUCGGAUGCAGAUGCGGCAUCCUUCGGUGGCGCGAUACCGCCAACGUUCUCAACUAUGACACGCAAAACGCGUGCUCCGUUGAAUGGAGUUUAUGAUG [A22C G50U G67U G74U G92C C149G],≤ -4.2
14,GGAUCUUCUAGAUCUAACAGAAAAGACAAAUCUGCCACAAGGCUUACGAGCAUCUUUGGAUGCAGAGGCGGCAGCCUUCGGUGGGGCGAUAGCGCCAACGUUCUCAACUAUGACACGCAAAACGCGUGCUCCUUUGAAUGGAGUUUAUCAUG [C10A A20G A41G G46A A47C C57U C85G G133U],≤ -4.2
15,GGAUCUUCUCGAUCUAACAAAAAAGACAAAUCUGCCACAAAGCUUGAGAGCAUCUUCGGAUGCAGAGGCGGCGGCCUUCGGUGGCGCGAUAGCGCCAACGUUCUCAACUAUGACACGCAAAACGCGUGCUCCGUUGAAUGGCGUUUAUCAUG [A73G A142C],-1.76
16,GGAUCUUCUCGAUCUAACAAAAAAGACAAAUCUGCCACAAAGCUUUAGAGCCUCUUCGGAUGCAGAGGCGGCAGCCUUCGGUGGCGCGUUAGCACCAACGUUCUCAACUAUGACACGCAAAACGCGUGCUCCCUUGAAUGGAGUUUAUCAUG [G46U A52C A89U G94A G133C],≤ -4.2
17,GGAUCUUCUCGAUCUAACAAAAAAGACAAAUCUGCCACAAAGCUUGAGAACAUCUUCGGAUGCAGAGGCGGCAGCAUUCGGUGGCGCGAUAACGCCAACGGUCUCAACUAUGACACGCAAAACGCGUUCGCCGUUGAAUGGAGUUUAUCAUG [G50A C76A G92A U101G G128U U130G],≤ -4.2
18,GGAUCUUCUCGAUCUAACAAAAAAGACAAAUCUGCCUCAAAGCUUGAGAGCAUCUUCGGAUGCAGAGGCGGCAGCCUUCGGUGGCGCGAUAGCGCCAACGUUCUCAACUAUGACCCGCCAAACGCGUGCUCCGUUGAAUGGAGUUUAUCAUG [A37U A115C A119C],-2.95
19,GGAUCUUCUCGAUCUAACAAAAAAGACAAGUCUGCCACAAAGCUUGAGAGCAUGUUCGGAUGCAGAGACGGCAGCCUUCGGUGGCGCGAUAGCGGCAACGUUCUCAACUAUGACACGCAACACGCGUGCUCCGUUGAAUGGAGUUUAUCAUG [A30G C54G G68A C95G A121C],≤ -4.2

# Reference: the RNAGym collection of RNA variant scans (doi:10.1073/pnas.2313332121)
